Measurements from US20160096892A1 (Novartis, published 2016).

Molecular target: T1, recombinant Fc-tagged hsCD33 (human, UniProt P20138 18-259)
T1 construct: Soluble staining reagent, detected with a PE-conjugated Fc-specific secondary antibody; not shown: Fc tag
Test: flow cytometry; JNL cells displaying the scFv CAR, recombinant Fc-tagged hsCD33, PE anti-Fc secondary
Procedure: FIG. 32 is an image depicting cross-reactivity of T cells expressing scFvs targeting CD33 to cynomolgus CD33 (cyCD33) by flow cytometry. JNL cells transduced with a lentiviral vector expressing scFv's raised against hsCD33 were incubated with either recombinant Fc-tagged hsCD33 (dotted line) or cyCD33 (solid line) followed by incubation with an Fc-specific secondary antibody conjugated to phycoerythrin.
Finally, scFv cross-reactivity to cynomolgus CD33 (cyCD33) was assessed by flow cytometry as depicted in FIG. 32. JNL cells transduced with a lentiviral vector expressing scFv's raised against hsCD33 were incubated with either recombinant Fc-tagged hsCD33 (red line) or cyCD33 (blue line) followed by incubation with an Fc-specific secondary antibody conjugated to phycoerythrin. While scFv clones CD33-1, -2, -3, -4, -5, -6, -7, -9, and CD33-UPenn were capable of binding hsCD33, we note that only scFv clone CD33-5 appeared to be cross-reactive to both hsCD33 and cyCD33 (FIG. 32).

T1 sequence (P20138 18-259 limits assumed): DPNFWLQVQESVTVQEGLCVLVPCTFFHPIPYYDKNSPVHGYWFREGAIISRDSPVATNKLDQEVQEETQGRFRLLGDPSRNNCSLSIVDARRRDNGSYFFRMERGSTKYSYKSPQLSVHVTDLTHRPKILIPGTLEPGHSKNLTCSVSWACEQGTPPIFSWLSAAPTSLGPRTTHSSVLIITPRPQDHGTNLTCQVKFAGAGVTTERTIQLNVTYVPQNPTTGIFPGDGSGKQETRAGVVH

binding result: binds
B1: CD33-UPenn (scFv based on the sequence of Mylotarg; humanized My96) (scFv, not shown: small tags and cut ends)
chain: EIVLTQSPGSLAVSPGERVTMSCKSSQSVFFSSSQKNYLAWYQQIPGQSPRLLIYWASTRESGVPDRFTGSGSGTDFTLTISSVQPEDLAIYYCHQYLSSRTFGQGTKLEIKRGGGGSGGGGSSGGGSQVQLQQPGAEVVKPGASVKMSCKASGYTFTSYYIHWIKQTPGQGLEWVGVIYPGNDDISYNQKFQGKATLTADKSSTTAYMQLSSLTSEDSAVYYCAREVRLRYFDVWGQGTTVTVSS
notes: also called CAR33-UPenn
